This note sets out measurements from patent publication US9878016B2, “IGFBP-3 derivatives and uses thereof” (INSERM (Institut National de la Sante et de la Recherche …, priority 2011, dated 2018).

In data set [1] the target is IGF-I (Homo sapiens, UniProt P05019). The experiment in a line: Affinity for IGF-I: competition with 125I-IGF-1 tracer, Scatchard analysis. It counts as binding. As to conditions: association constant, IGF-I competitor. How it is done:
(§1) The affinity of wild type (wt) IGFBP-3 and of mutated IGFBP-3 (mini-IGFBP-3) for IGF-I and IGF II was determined using ^125I-IGF-1 as a radioactive tracer. Various concentrations of IGF-I and IGF-II were used as competitors and affinity constants were determined by Scatchard analysis.

For data set [2], the target named is T1, MMP-7 (Homo sapiens, UniProt P09237).
T1 sequence (P09237 95-267): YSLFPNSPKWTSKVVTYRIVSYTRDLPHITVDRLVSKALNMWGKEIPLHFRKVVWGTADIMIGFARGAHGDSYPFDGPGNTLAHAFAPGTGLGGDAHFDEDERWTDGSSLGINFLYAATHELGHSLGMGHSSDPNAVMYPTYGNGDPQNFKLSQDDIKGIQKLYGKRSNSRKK
The experiment in a line: Proteolytic digestion by activated MMP-7 (SDS-PAGE). It counts as biochemical. The conditions noted are these: substrate 20 μM, 1:10 molar ratio, enzyme activated with 1 mM APMA. How it is done: (§2) The ability of mini-IGFBP-3 to resist proteolytic digestion by Matrix Metalloproteinases, MMP-7 and MMP-9, is also currently being tested. MMP-7 and MMP-9 are expressed by tumor cells and are present in higher quantity in the bloodstream of cancer patients where they contribute to the degradation of native, endogenous IGFBP-3. In the experiments, these enzymes are first activated with 1 mM APMA. Mini-IGFBP-3 and full length IGFBP-3 are compared as substrate for activated MMP-7 and MMP-9. Concentrations of each substrate (20 μM) are incubated in a 1:10 molar ratio with either MMP-7 or MMP-9. At the end of the incubation period, proteins are analyzed by SDS-PAGE to evaluate their respective cleavage into fragments.

Data set [3] has as its target MMP-9 (Homo sapiens, UniProt P14780). The data set is described as follows: Proteolytic digestion by activated MMP-9 (SDS-PAGE). It counts as biochemical. The conditions noted are these: substrate 20 μM, 1:10 molar ratio, enzyme activated with 1 mM APMA. How it is done: as §2
Data set [4] addresses T2, IGF-II (Homo sapiens, UniProt P01344).
T2 construct: before undergoing regulated endoproteolytic cleavage to the mature form (IGF-II)
The data set is described as follows: Affinity for IGF-II: competition with 125I-IGF-1 tracer, Scatchard analysis. The data set is classed as binding. The conditions noted are these: association constant, IGF-II competitor. The method, then: as §1

In data set [5] the test system is HT-29 human colorectal tumor xenografts. The data set is described as follows: Tumor signalling in mice bearing HT-29 xenografts, 12 hours treatment (western immunoblots). The data set is classed as in vivo, NMRI-nu mice. As to conditions: three i.p. injections (340 μg) every 3 hours, sacrifice at 12 hours; for Erk1/2 phosphorylation in tumors / Rb phosphorylation in tumors: vs untreated. The method, then:
Thus, HT-29 xenografts were established in nude mice. After tumor had reached a critical size, mice were treated with either mini-IGFBP-3 or mini-IGFBP3-Fc in three i.p. injections separated by a three hours interval and mice were sacrificed after […]. Tumor MEK and PI3Kinase signalling pathways were assessed in these tumors, together with the cell cycle regulator Rb, by evaluating the phosphorylation status of AKT, ERK-1/2 and Rb, respectively, using western immunoblots.
More specifically, 2.5×10^6 HT-29 cells were injected s.c. into each flank of 5 weeks old NMRI-nu mice. Tumors were allowed to grow up to a volume of 500 mm^3 before mice were randomized into individual treatment groups (n=2) and received three i.p. injections (340 μg) of either mini-IGFBP-3 or mini-IGFBP-3-Fc every 3 hours. The control group was injected with saline. Twelve (12) hours after treatment initiation, mice were sacrificed and excised tumors were cut in half. One half was snap frozen in liquid nitrogen and stored at −80° C. The other half was fixed in Finfix, included in paraffin and processed for immuno-histochemistry. For Western blot analysis, tumors were homogenized in lysis buffer (10 mM Tris HCl at pH 7.4, 150 mM NaCl, 1% Nonidet P-40, 0.1% sodium deoxycholate, 0.1% SDS, 1 mM EDTA, 2 mM sodium orthovanadate, protease inhibitor tablet [Roche Molecular Biochemicals]). After centrifugation, protein concentrations were determined by the Bio-Rad protein assay (Bio-Rad). Fifteen micrograms of protein were run on a 4%-12% SDS-PAGE gel (Invitrogen). Membranes were blocked in 5% nonfat milk in TBS-T overnight at 4° C., washed with TBS-T, incubated with anti-mouse or anti-rabbit horseradish peroxidase-conjugated secondary antibodies in TBS-T for 1 hour at room temperature, and washed in TBS-T. The signal was visualized using an enhanced chemiluminescence solution and exposed to film. The blotting antibodies used wherein phosphor-Akt, Akt, mitogen-activated protein kinase ERK1/2, phosphor-mitogen-activated protein kinase pErk1/2, Rb (BD Biosciences), β-actin and G3PDH; antibodies were from Cell Signalling Technology unless otherwise stated.
(A western blot detects proteins with antibodies after separation by electrophoresis.)

The nature of data set [6]: Decay of concentrations in mouse plasma after intravenous injection (ELISA). It counts as in vivo. The conditions noted are these: mice, 250 μg intravenously. How it is done: 250 μg of the indicated protein were injected intravenously to groups (n=3) of mice at time zero. Blood samples were drawn at the indicated time points, centrifuged and kept frozen. Concentrations of injected proteins were determined by an in-house sandwich type ELISA using anti-human IGFBP-3 specific monoclonal antibodies.
To pave the ground for future assessments of mini-IGFBP-3 in vivo activity, mini-IGFBP-3 and its derivatives were injected into mice. When measured using human-specific IGFBP-3 ELISA test, several kinetics could be observed.

Data set [7] has as its system AKT phosphorylation in A549 (lung cancer). The experiment in a line: AKT phosphorylation, A549 cells. The data set is classed as cell-based, human. The conditions noted are these: different incubation times. The method, then:
(§3) These effects are compared to those of ppp (see Example 5 for experimental details). FIG. 11(B) is a graph showing the effects of mini-IGFBP-3-Fc on the phosphorylation of AKT in MiaPaCa-2 cells (upper left), HT-29 cells (upper right) and A549 cells (lower left) and of […] on the phosphorylation of AKT in A549 cells (lower right) after different incubation times, as indicated (see Example 5 for experimental details).
(§4) The inhibiting activity of mini-IGFBP-3-Fc on AKT phosphorylation was also assessed in various human tumor cell lines: MiaPaCa-2 (pancreatic cancer), HT-29 (colon cancer) and A549 (lung cancer). The inhibiting activity of mini-IGFBP-3 on AKT phosphorylation was assessed A549 cells.

The subject of data set [8] is Hep3B. The data set is described as follows: Cell viability assay (WST-1), Hep3B. The data set is classed as cell-based, human. As to conditions: 100 nM, 72 hours, 10% FCS. How it is done:
(§5) The effects of mini-IGFBP-3-Fc on the proliferation and survival of three human tumor cell lines, Hep3B and HuH7—hepatocellular carcinoma cell lines) and INA-6 (multiple myeloma cell line), were studied. For each cell line cultivated in the presence of 10% fetal calf serum (FCS), the effect of mini-IGFBP-3-Fc were compared to the effect picropodophyllin (ppp), a compound known to interfere with the IGF1-R signalling pathway. A cell viability assay was performed 72 hours after initiation of the culture in the presence of mini-IGFVP-3-Fc (100 nM) or ppp (1 μM) in a medium containing 10% FCS by adding WST-1 and monitoring formazan conversion.

Data set [9] has as its system INA-6. The data set is described as follows: Cell viability assay (WST-1), INA-6. The data set is classed as cell-based, human. The conditions noted are these: 100 nM, 72 hours, 10% FCS. How it is done: as §5
The test system of data set [10] is phosphorylation of AKT in INA-6 myeloma cells. The data set is described as follows: AKT phosphorylation, INA-6 myeloma cells (western blot). As to conditions: 100 nm; 3, 6 or 24 hours; 10% FCS. The data set is classed as cell-based. How it is done:
The INA-6 myeloma cell line was grown in the presence of 10% FCS. The cells were incubated with mini-IGFBP-3 (100 nm) or ppp (1 μM) 3, 6 or 24 hours. After incubation, the cells were lysed using a lysis buffer, and cell extracts (normalized for protein contents) were loaded on SDS-PAGE gel, transferred onto nitrocellulose membrane, which was further incubated with a monoclonal antibody directed against the […] residue of the AKT protein. The membrane was also re-probed after stripping with an anti-actin antibody to check for equal loading.

Data set [11] relates to AKT phosphorylation in MiaPaCa-2 (pancreatic cancer). The experiment in a line: AKT phosphorylation, MiaPaCa-2 cells. It counts as cell-based, human. As to conditions: different incubation times. How it is done:
as §3, §4

For data set [12], the system named is AKT phosphorylation in HT-29 (colon cancer). The data set is described as follows: AKT phosphorylation, HT-29 cells. The data set is classed as cell-based, human. The conditions noted are these: different incubation times. How it is done: as §3, §4
In data set [13] the test system is HuH7. The experiment in a line: Cell viability assay (WST-1), HuH7. It counts as cell-based, human. The conditions noted are these: 100 nM, 72 hours, 10% FCS. How it is done:
as §5
In general terms: Formazan colour is commonly taken as a measure of viable cells.

For data set [14], the target named is T2, IGF-II. The experiment in a line: Solid-phase assay: displacement of biotinylated IGF-II tracer from immobilized binding protein. As to conditions: increasing free IGF-II. The source says: FIG. 10(A) is a graph showing the relative binding affinity of mini-IGFBP-3 and mini-IGFBP-3-Fc towards IGF-II. The solid phase assay used measured the ability of increasing concentrations of free IGF-II to displace binding of the biotinylated IGF-II tracer to mini-IGFBP-3 and mini-IGFBP-3-Fc immobilized on a support (See Example 5 for experimental details). FIG. 10(B) is a graph showing the effects of mini-IGFBP-3-Fc on proliferation and survival of three human tumor cell lines cultivated in the presence of 10% FCS: Hep3B, HuH7 and INA-6. The effects of mini-IGFBP-3-Fc are compared to the effects of picropodophyllin (ppp), a compound known to interfere with IGF-R signalling pathway (see Example 5 for experimental details).
A solid-phase assay was used to study the binding affinity of mini-IGFBP-3-Fc for IGF-II. In this assay, two binding proteins (mini-IGFBP-3 and mini-IGFBP-3-Fc) were immobilized to a support. They were incubated with the biotinylated IGF-II tracer, and then increasing concentrations of IGF-II were added.

T2 sequence (P01344 25-91 limits assumed): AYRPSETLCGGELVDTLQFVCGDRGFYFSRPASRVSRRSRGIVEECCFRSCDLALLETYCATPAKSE
Chain of IGF-I (P05019 49-118 limits assumed): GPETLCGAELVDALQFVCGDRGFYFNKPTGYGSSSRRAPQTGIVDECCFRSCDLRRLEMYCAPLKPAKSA
Chain of MMP-9 (P14780 107-707 limits assumed): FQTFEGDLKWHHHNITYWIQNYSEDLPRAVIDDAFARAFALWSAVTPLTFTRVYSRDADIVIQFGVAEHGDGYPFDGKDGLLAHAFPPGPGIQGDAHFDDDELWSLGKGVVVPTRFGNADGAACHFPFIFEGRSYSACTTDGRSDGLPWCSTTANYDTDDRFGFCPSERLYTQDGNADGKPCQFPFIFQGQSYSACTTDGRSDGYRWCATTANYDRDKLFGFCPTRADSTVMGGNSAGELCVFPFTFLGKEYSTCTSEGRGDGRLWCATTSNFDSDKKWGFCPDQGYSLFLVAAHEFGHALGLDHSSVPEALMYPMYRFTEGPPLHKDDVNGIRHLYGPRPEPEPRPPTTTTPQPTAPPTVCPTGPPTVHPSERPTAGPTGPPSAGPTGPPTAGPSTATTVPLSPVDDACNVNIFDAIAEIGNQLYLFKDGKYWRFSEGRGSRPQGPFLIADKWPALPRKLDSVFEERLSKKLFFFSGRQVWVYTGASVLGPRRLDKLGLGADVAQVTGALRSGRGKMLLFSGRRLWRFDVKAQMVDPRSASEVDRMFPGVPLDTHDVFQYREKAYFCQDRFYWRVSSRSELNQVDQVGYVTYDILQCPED

Consider “wt IGFBP-3: Recombinant wild type human IGFBP-3 with hexahistidine N-terminal extension, comparator [reference compound]”, for which the “affinity constant for IGF-I” value in data set [1] worked out at 2.96e+10 M⁻¹. Further, the “cleavage by MMP-7” value in data set [2] is listed as “digested”. The “cleavage by MMP-9” value in [3] is on record as “digested”. Also, the “affinity constant for IGF-II” value in data set [4] amounted to 3.5e+10 M⁻¹.
In the case of “mini-IGFBP-3: Human IGFBP-3 mutein: 85 central-domain residues (95 to 179) replaced by 15 amino acid spacer GGGSGGSGGSGGSGG (SEQ ID NO: 4)”, the “affinity constant for IGF-I” value in data set [1] amounted to 2.4e+10 M⁻¹. For the same molecule, the “cleavage by MMP-7” value in data set [2] is listed as “resists this proteolytic attack”. The “cleavage by MMP-9” value in data set [3] is listed as “resists this proteolytic attack”. In addition, in data set [5], the “AktS473 phosphorylation in tumors” value was “abolished”, the “mitotic index compared to untreated tumors” value is on record as −12%, the “Erk1/2 phosphorylation in tumors” value was “considerably decreased” and the “Rb phosphorylation in tumors” value was “decreased”. Further, in data set [6], the “fraction of the initial dose that left the bloodstream in the first 3-4 hours” value is recorded as 80-90% and the “remaining fraction that disappeared very slowly until 48 hours” value is recorded as 10-20%. Also, the “affinity constant for IGF-II” value in [4] came to 3.14e+10 M⁻¹. For the same molecule, the “AKT phosphorylation in A549 cells” value in data set [7] is “able to block the AKT phosphorylation”.

B1: mini-IGFBP-3-Fc: Immunoadhesin fusion protein joining mini-IGFBP-3 to the Fc fragment of human IgG1 (protein)
chain: GASSAGLGPVVRCEPCDARALAQCAPPPAVCAELVREPGCGCCLTCALSEGQPCGIYTERCGSGLRCQPSPDEARPLQALLDGRGLCVNASAVSGGGSGGSGGSGGSGGETEYGPCRREMEDTLNHLKFLNVLSPRGVHIPNCDKKGFYKKKQCRPSKGRKRGFCWCVDKYGQPLPGYTTKGKEDVHCYSMQSK
modifications: left off: a dimerising Fc or GST
notes: Immunoadhesin fusion protein joining mini-IGFBP-3 to the Fc fragment of human IgG1
B1: the “proliferation and survival of Hep3B” value in data set [8] was “anti-proliferative activity”. Further, the “proliferation and survival of INA-6” value in data set [9] is on record as “anti-proliferative activity”. For the same molecule, the “phosphorylation of AKT in INA-6 cells” value in data set [10] was “inhibiting effects”. Besides, the “AKT phosphorylation in MiaPaCa-2 cells” value in data set [11] was “able to block the AKT phosphorylation”. Moreover, in data set [12], the “AKT phosphorylation in HT-29 cells” value is reported as “able to block the AKT phosphorylation”. Also, in data set [5], the “AktS473 phosphorylation in tumors” value was “abolished”, the “mitotic index compared to untreated tumors” value was −12%, the “Erk1/2 phosphorylation in tumors” value was “considerably decreased” and the “Rb phosphorylation in tumors” value is listed as “decreased”. The “proliferation and survival of HuH7” value in [13] is reported as “anti-proliferative activity”. Besides, the “half-life of serum concentration” value in [6] (single slope kinetics) is “about 12 hours”. Also, the “AKT phosphorylation in A549 cells” value in data set [7] is “able to block the AKT phosphorylation”. The “apparent affinity for IGF-II compared with unfused mini-IGFBP-3” value in data set [14] is “higher apparent affinity”.
